{
  "source": "patent US20160136262A1",
  "binders": {"B1": {"name": "CR6261 (antibody, V domains shown)", "VH": "EVQLVESGAEVKKPGSSVKVSCKASGGPFRSYAISWVRQAPGQGPEWMGGIIPIFGTTKYAPKFQGRVTITADDFAGTVYMELSSLRSEDTAMYYCAKHMGYQVRETMDVWGKGTTVTVSS", "VL": "QSVLTQPPSVSAAPGQKVTISCSGSSSNIGNDYVSWYQQLPGTAPKLLIYDNNKRPSGIPDRFSGSKSGTSATLGITGLQTGDEANYYCATWDRRPTAYVVFGGGTKLTVLG"}},
  "key": {"[1]": {"biological_target": "T1, H1-mini2-cluster1+5+6-GCN4 without leader sequence and with FLAG-thrombin-foldon-HIS", "experiment": "ELISA/HTRF, HEK293F; average", "conditions": "remark: other sources report otherwise"}, "[2]": {"biological_target": "T1, H1-mini2-cluster1+5+6-GCN4 without …", "experiment": "ELISA/HTRF, P. pastoris; average", "conditions": "remark: other sources report otherwise"}},
  "data": [
    {"binder": "B1", "values": [
      {"measurement": "fold increase of ratio over parental SEQ ID NO: 6", "setting": "[1]", "result": 1, "unit": "fold"},
      {"measurement": "ratio binding signal/HTRF signal", "setting": "[1]", "result": 17.4},
      {"measurement": "fold increase of ratio over parental SEQ ID NO: 6", "setting": "[2]", "result": 1, "unit": "fold"},
      {"measurement": "ratio binding signal/HTRF signal", "setting": "[2]", "result": 5.94}
    ]}
  ]
}
